Experimental data: publication PMC12148185, “Combining CD3/GD2 bispecific T cell engager with human Vγ9Vδ2 T cells facilitates neuroblastoma cell targeting and killing in vitro” (PLOS One, 2025)

Target: T1, recombinant CD3 epsilon (Homo sapiens (species ; human …, UniProt P07766)
T1 construct: recombinant CD3 epsilon (Sigma-Aldrich); No catalogue number is printed; source: bought: Sigma-Aldrich
Experiment: ELISA; indirect ELISA; 0.5 µg recombinant CD3 epsilon coated overnight at 4 °C; 500 µg/ml protein of total cell lysate, periplasmic or cytoplasmic fraction with the scFv, 37 °C 1 h; detected with HRP-conjugated anti-E tag, A405; signals of the negative protein and of BSA-coated wells subtracted
Details: one partner purified

T1 sequence (P07766 23-126): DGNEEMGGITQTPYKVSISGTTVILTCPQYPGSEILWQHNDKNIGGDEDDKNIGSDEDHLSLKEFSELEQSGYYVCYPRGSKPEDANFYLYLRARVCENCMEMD

B1: human scFv CD3 clone 18 (scFv, V domains shown)
VH: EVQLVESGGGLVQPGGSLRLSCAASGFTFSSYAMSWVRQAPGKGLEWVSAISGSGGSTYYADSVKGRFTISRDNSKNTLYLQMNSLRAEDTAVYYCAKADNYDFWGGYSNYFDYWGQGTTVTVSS
VL: EIVMTQSPATLSVSPGERATLSCTASQSVRNNLAWYQQKPGQPPRLLIYGASTRATGIPARFSGSRSGTEFTLTISSLQSEDFGVYYCQQYNNWPRTFGQGTKVEIK
notes: selected from a naive human scFv M13 phage library; About 28 kDa on Western blot; source: E. coli HB2151, IPTG-induced; total cell lysate, periplasmic fraction or cytoplasmic fraction
B1: binds.
